Test results as given in patent US20080227954A1 (ZEALAND PHARMA A S, published 2008).
Where no end group is shown, it is not given here.

What was measured:
[1] = target: PTH (1-34)-antibody of the enzyme immunoassay EIAS(h)-6101 (Peninsula Laboratories, Inc.); test: competitive EIA against biotinylated peptide for the PTH(1-34) antibody
[2] = target: T1, µ opioid receptor (bovine caudate nucleus synaptic membrane fraction) (bovine, UniProt P79350 1-401); test: displacement of 1 nM [3H]DAMGO, bovine caudate synaptic membranes; column Time 18 hours
T1 construct: whole, on cells; Native receptor in brain membranes, not on intact cells; The tissue may hold other opioid receptors; also called µ-receptor; µ opioid receptors
T1 sequence (P79350 whole entry): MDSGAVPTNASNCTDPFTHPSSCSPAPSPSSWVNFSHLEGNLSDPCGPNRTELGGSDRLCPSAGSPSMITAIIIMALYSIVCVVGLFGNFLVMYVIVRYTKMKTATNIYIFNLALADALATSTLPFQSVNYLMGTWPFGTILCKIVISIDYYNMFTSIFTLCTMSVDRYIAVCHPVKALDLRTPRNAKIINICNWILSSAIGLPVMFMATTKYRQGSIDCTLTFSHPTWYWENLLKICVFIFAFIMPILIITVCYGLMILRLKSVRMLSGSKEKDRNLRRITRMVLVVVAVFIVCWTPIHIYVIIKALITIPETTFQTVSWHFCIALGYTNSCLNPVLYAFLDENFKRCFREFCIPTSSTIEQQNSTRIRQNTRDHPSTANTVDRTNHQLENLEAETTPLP

[3] = target: T1, µ opioid receptor (bovine caudate …); test: displacement of 1 nM [3H]DAMGO, bovine caudate synaptic membranes; column Time 0 hours; mean ± SD
Protocol: (§1) Affinities for […] opioid receptor were determined using [³H](D-Ala²,N-Me-Phe⁴, Gly-ol⁵) Enkephalin (DAMGO) (1 nM) as described by Christensen, 1993, Pharmacol. Toxicol. 73:344-345. In short: Bovine brains were placed on ice within minutes after the slaughter. The caudate nuclei were dissected and homogenized in 20 vol. of 0.32 M sucrose. The homogenate was centrifuged at 2000 g for 10 min. The pellet was re-suspended in 10 vol. of 50 mM Tris-HCl buffer 7.4 and stored at −20° C. until use. The synaptic membrane fraction was incubated with 1 nM of [3H]DAMGO in the presence of various concentrations of test ligand. Non-specifically bound [3H]-DAMGO was established using 1 μM naloxone. Following 15 min. incubation at 36° C. samples were filtered through Whatman GF/C filters and washed with buffer. Radioactivity was determined using conventional techniques.

[4] = target: T1, µ opioid receptor (bovine caudate …); test: displacement of 1 nM [3H]DAMGO, bovine caudate synaptic membranes; column Time 0 hours
Protocol: as §1

For SVSEIQLMHNLGKHLNSMERVEWLRKKLQDVHNF-OH [hPTH (1-34) (PTH(1-34)(Human)-OH)], the Relative recovery % [1] was 90.8%.

H-YGGFLKKKKKK-OH (also called H-Leu-enkephalin-Lys6) [Leu-Enkephalin-(Lys)6-OH (H-Tyr-Gly-Gly-Phe-Leu-Lys6-OH)] was tested, and the IC50 [2] was 32 nM and the IC50 [3] was 17 nM.

Work on H-SVSEIQLMHNLGKHLNSMERVEWLRKKLQDVHNFKKKKKK-OH [H-hPTH(1-34)-K6-OH (PTH(1-34)(Human)-Lys6-OH)] yielded a Relative recovery % [1] of 61.8%.

Work on H-YGGFLEEEEEE-OH [Leu-Enkephalin-(Glu)6-OH (H-Tyr-Gly-Gly-Phe-Leu-Glu6-OH)] yielded an IC50 [2] of 5000 nM and an IC50 [4] of 10000 nM.

Binder YGGFLKEKEKE-OH [Leu-Enkephalin-(Lys-Glu)3-OH] has an IC50 [2] of 900 nM and an IC50 [3] of 450 nM.

With H-KKKKKKSVSEIQLMHNLGKHLNSMERVEWLRKKLQDVHNF-OH [H-K6-PTH(1-34)-OH (Lys6-PTH(1-34)(Human)-OH)] the Relative recovery % [1] was 79.1%.
